Measurements from patent US8119766 (UNIVERSITY OF IOWA RESEARCH FOUNDATION, dated 2012).

What was measured:
[1] = biological target: full-length α-DG-IgG Fc fusion protein (DGFc5), secreted form from conditioned medium (human); test: solid-phase laminin-1 binding assay, nonlinear regression (FIG. 9C)
[2] = biological target: LARGE-modified DGFc5 (human); test: as above
[3] = biological target: full-length α-DG-IgG Fc fusion protein (DGFc5), secreted form from conditioned medium (human); test: solid-phase binding of laminin-1, nonlinear regression (FIG. 8C)
laminin-1 [4] = biological target: T1, laminin-1 (mouse, UniProt P19137 25-3083; P02469 22-1786; P02468 34-1607); test: as above
T1 construct: also called mouse EHS laminin-1; biotinylated laminin-1

laminin-1 [5] = biological target: T1, laminin-1; test: laminin overlay
laminin-1 [6] = biological target: T1, laminin-1; test: laminin-1 overlay, with LARGE co-expression

## laminin-1 (from UniProt P19137 25-3083; P02469 22-1786; P02468 34-1607) (ligand)
[1]
  Kd: 3.1 nM
[2]
  Kd: 1.6 nM
[3]
  Kd: 1.1 nM

B1: native α-DG (receptor, rabbit, UniProt Q28685 30-653, looked up)
chain: HWPSEPSEAVRDWENQLEASMHSVLSDLHEALPTVVGIPDGTAVVGRSFRVTIPTDLIGSSGEVIKVSTAGKEVLPSWLHWDPQSHTLEGLPLDTDKGVHYISVSAAQLDANGSHIPQTSSVFSIEVYPEDHSEPQSVRAASPDLGEAAASACAAEEPVTVLTVILDADLTKMTPKQRIDLLHRMQSFSEVELHNMKLVPVVNNRLFDMSAFMAGPGNAKKVVENGALLSWKLGCSLNQNSVPDIRGVEAPAREGTMSAQLGYPVVGWHIANKKPPLPKRIRRQIHATPTPVTAIGPPTTAIQEPPSRIVPTPTSPAIAPPTETMAPPVRDPVPGKPTVTTRTRGAIIQTPTLGPIQPTRVSDAGTVVSGQIRATVTIPGYVEPTAVATPPTTTTKKPRVSTPKPATPSTDSSATTTRRPTKKPRTPRPVPRVTTKAPITRLETASPPTRIRTTTSGVPRGGEPNQRPELKNHIDRVDAWVGTYFEVKIPSDTFYDKEDTTTDKLKLTLKLREQQLVGEKSWVQFNSNSQLMYGLPDSSHVGKHEYFMHATDKGGLSAVDAFEIHVHKRPQGDKAPARFKAKFVGDPAPVVNDIHKKIALVKKLAFAFGDRNCSTVTLQNITRG
modifications: native glycosylation; sites not stated
notes: mature; also called native α-dystroglycan purified from rabbit skeletal muscle
laminin-1 [4]
  Kd: 0.4 nM

B2: DGFc2 prepared from cell lysate (Fc fusion, UniProt Q28685 30-316, looked up)
chain: HWPSEPSEAVRDWENQLEASMHSVLSDLHEALPTVVGIPDGTAVVGRSFRVTIPTDLIGSSGEVIKVSTAGKEVLPSWLHWDPQSHTLEGLPLDTDKGVHYISVSAAQLDANGSHIPQTSSVFSIEVYPEDHSEPQSVRAASPDLGEAAASACAAEEPVTVLTVILDADLTKMTPKQRIDLLHRMQSFSEVELHNMKLVPVVNNRLFDMSAFMAGPGNAKKVVENGALLSWKLGCSLNQNSVPDIRGVEAPAREGTMSAQLGYPVVGWHIANKKPPLPKRIRRQIHA
notes: domain: N-terminal domain; About 65 kDa; also called DGFc2 (cell lysate); not shown: IgG Fc portion
laminin-1 [5]
  binding result: no binding

B3: secreted DGFc2 from cells cultured with CMK (Fc fusion, UniProt Q28685 30-316, looked up)
chain: B2 chain
notes: domain: N-terminal domain; Migrated at the same size (~65 kDa) as DGFc2 from cell lysate; also called DGFc2 (CMK-treated, secreted); not shown: IgG Fc portion
laminin-1 [5]
  binding result: no binding

B4: DGFc6, secreted form (Fc fusion, UniProt Q28685 317-653, looked up)
chain: TPTPVTAIGPPTTAIQEPPSRIVPTPTSPAIAPPTETMAPPVRDPVPGKPTVTTRTRGAIIQTPTLGPIQPTRVSDAGTVVSGQIRATVTIPGYVEPTAVATPPTTTTKKPRVSTPKPATPSTDSSATTTRRPTKKPRTPRPVPRVTTKAPITRLETASPPTRIRTTTSGVPRGGEPNQRPELKNHIDRVDAWVGTYFEVKIPSDTFYDKEDTTTDKLKLTLKLREQQLVGEKSWVQFNSNSQLMYGLPDSSHVGKHEYFMHATDKGGLSAVDAFEIHVHKRPQGDKAPARFKAKFVGDPAPVVNDIHKKIALVKKLAFAFGDRNCSTVTLQNITRG
notes: domain: mucin-like domain and C-terminal domain; Tested with and without LARGE co-expression; not shown: IgG Fc portion
laminin-1 [6]
  binding result: no binding
